The term Kd denotes the equilibrium constant for the complex coming apart.

In patent publication US20220112296A1 one finds Kd data, which are given here for one molecule.

The assay concerns the target biotinylated CD3 epsilon epitope peptide. Nature of the assay: SPR Biacore, method of Ref. Ex. 11. In general terms: Surface plasmon resonance follows binding to a sensor surface in real time, without labels.

B1: CE115HA000 (antibody, V domains shown)
VH: QVQLVESGGGVVQPGRSLRLSCAASGFTFSNAWMHWVRQAPGKGLEWVAQIKAKSNNYATYYAESVKGRFTISRDDSKNSLYLQMNSLKTEDTAVYYCRYVHYGAYYGVDAWGQGTTVTVSS
VL: DIVMTQSPLSLPVTPGEPASISCRSSQSLVHSNRNTYLHWYQQKPGQAPRLLIYKVSNRFSGVPDRFSGSGSGTDFTLKISRVEAEDVGVYYCGQGTQVPYTFGQGTKLEIK
Consider B1, for which the dissociation constant (Kd) was determined as 110 nM.
